Data: the RNAGym collection of RNA variant scans (doi:10.1073/pnas.2313332121)

B1: TPR t1 (parent)
chain: GACCAAUCUGCCCUCAGAGCUCGAGAACAUCUUCGGAUGCAGAGGAGGCAGGCUUCGGUGGCGCGAUAGCGCCAACGUCCUCAACCUCCAAUGCAUCCCACCACAUGAUGAUGCCUGAAGAGCCUUGGUUUUUUG

Variants of: B1
Experiment: polymerase ribozyme fitness, log enrichment relative to wild type (log ratio); higher = more active; in vitro selection for triplet polymerase activity
Procedure, shortened: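 Mutant libraries of both subunits of a heterodimeric triplet polymerase ribozyme were PCR-built, transcribed, and selected once in triplicate, with frozen incubation at −7 °C and capture of gel-excised extended constructs on streptavidin beads before RT-PCR. Illumina sequencing of input and output libraries was filtered to genotypes with ≥10 input reads and ≥1 read per output. Fitness is the logarithm of genotype enrichment over wild-type enrichment, using inverse-variance-weighted replicate averages. The logarithm is base 2.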

| Variant | polymerase ribozyme fitness (log ratio) |
| --- | --- |
| GCCCAAUAUGCCCUCAGAGCUCGAGAACAUCUUCGGAUGCACAGGAGGCAGGCAUCGGUGGCGCGAUAGCGCCAACGACCUCAACCUCCAAUGCAUCUCACCACAUGAUGAUGCCUGAAAAGCCUUCGUUUUUUG | -2.04 |
| GCCCAAUCUGCACUCAGAGCUCGAGAACAUCUUCGGAUGCAGAGGAGGCAGGCUUCGGUGGCGCGUUAGCGCCAACGUCCUCAACCUCCAAUGCAUCCCACCAUAUGAUGAUGCCUGAAGAGCCUUGGUUUUUUG | -3.52 |
| GCCCAAUCUGCGCUCAGAGCUCGAGAACAUCUUCGGAUGCAUAGGAGGAAGGCUUCGGUGGCGCGAUAGCGCAAACGUCCUUAACCUCCAAUGCAUCCCACCACAUGAUGCUGCCUGAAGAGCCUUGGUUUUUUG | -5.3 |
| GCCCCAUCUGCCCUCAGAGCUCGAGAACAUCUUCGGAUGCAGAGGAGGCAGGCUUCGGUGGCGCGAUAGCGCCAACGUCCUCAACCUCCAAUGCAUCCCACCACAUGAUGAUGGCUGAAGAGCAUUGGUUUUUUG | -3.41 |
| GCCCACUAUGCCCUCAGAGCUCGAGAACAUCUUCGGAUGCAGAGGAGGCAGGCUUCGGUGGCGCGAUAGCACCAACGUCCUCAUCCUCCAAUGCAUCCCACCACAUGAUGAUGCCUGAAGAGCCUUGGAUUUUUG | -2.03 |
| GCCCUAUCUGCCCUCAGAGCUCGAGAACAUCUUCGGAUGCAGAGGAGGCAGUCUUCGGUGGAGCGAUAGCGCCAACGUCCUCAACCUCCAAUGCAUCCCACCACAUGAUGAUGCCUGAAGAGCCUUGGUUUUUUG | -4.11 |
| GCCCAAUCUGCGCUCAGAGCUCGAGAACAUCUUCGGAUGCAGAGGCGGCAGGCUUCGGUGGCGCGAUAGCGUCAACGUCCUCAACCUCCAAUGCAUCCCACCACAUGAUGAUUCCUGAAGAGCCUUGGUUUUUUG | -7.24 |
| GCGCAAUCUGCCCUCAGAGCUCGAGAACAUCUUCGGAUGCAGAGGAGGCAGGCUUCGGUGGCGCGAUAGCGCCAACGUCCUCAACCUCCUAUGCAUCCCACCACAUGAUGAUGCUUGAAGAGCCUUGGUUUUUUG | -3.68 |
| GCACAAUCAGCCCUCAGAGUUCGAGAACAUCUUCGGAUGCAGAGGAGGCAGGCUUCGGUGGCCCGAUAGCGCCAACGUCCUCAACCUCCAAUGCAUCCCACCACAUGAUGAUGCCUGAAUAGCCUUGGUUUUUUG | -1.07 |
| GCACAAUCAGCCCUCAGAGUUCGAGAACAUCUUCGGAUGCAGAGGAGGCAGGCUUCGGUGGCGCGAUAGCGCCAACGUCCUCAACCUCCAAUGCAUCCCACCACAUGAUGAUGCCUGAAUAGCCUUGGUUUUUUG | -0.418 |
| GCCCAAUCUGCGCUCAGAGCUCGAGAACAUCUUCGGAUGCAGAGGAGGCAGGCUUCGGUGGCGCGAUACCGCCAACGUCCUCAACCUCCAAUGCAUCCCACCACAUGAUUAUGCCUGAAGAGCCUUGCUUUUUUG | -5.29 |
| GCCCAAUAUGCCCUCAGAGCUCGAGAACAUCUUCGGAUGCAGAGGAGGCAGGCUUCGGUGGCGCGAUAGCGCCAACGUCCUCAACCUCCAAUGCAUCCCACCACAUGAUGAUGCCUGAAGAGCCUUGGUUAUUUG | -1.54 |
| GCCCAAUCUGCCCUCAGAGCUCGAGAACAUCUUCGGAUGCUGAGGAGGCAGGCUUCGGUGGCGCGAUAGCGCCAACGGCCUCAACCUCCAAUGCAUCCCACCACAUGAUGAUGCCUGAAGAGCCUUGGUUUUUUG | -3.61 |
| GCCCAAUCUGCCCUCAGAGCUCGAGAACAUCUUCGGAUGCAGAGGAGGCAGGCUUCGGUGGCGCGAUAGCGCCAACGUCCUCAACCUCCAAUGCAUCCCACCACAUGAUGAUGCCUGAAGGGCCUUGGUUUUUUG | 0.405 |
| GCCCAAUCUGCCGUCAGAGCUCGAGAACAUCUUCGAAUGCAGAGGAGGCAGGCUUCGGUGGCACGAUAGCGCCAACGUCCUCAACCUCCAAUGCAUCCCACCACAUGAUGAUGCCUGAAGAGCCUUGGUUUUUUG | -5.73 |
| GCCCAAUCUGCCCUCAGAGCUCGAGACCAUCUUCGGAUGCAGAGGAGGCAGGCUUCGGUGGCGCGAUAGCGCCAACGUCCUCAACCUCCAAUGCAUCCCACCACAUGAUGAUGCCUGAAGAGCCUUCGUUUUUUU | -6.34 |
| GCCCAAUCUGCCCUCAGAGCUCGAGAACAUCUUCGGAUGCAGAGGAGGCAGGCUUCGGUGGCGCGUUAGCGCCAACGUCCUCAACCUCCAAUGCAUCCCACCACAUGAUGAUGCCUGAAGAGCCUUGGUUUUUUG | -2.86 |
| GCCCAAUCUGCCCUCAGAGCUCGAGAACAUCUUCGGAUGCAGAGGCGGCAGGCUACGGUGGCGGGAUAGCGCCAACGUCCUCAUCCUCCAAUGCAUCCCACCACAUGAUGAUGCCUGAAGAGCCUUGGUUUUUUG | -7.2 |
| GCCUAAUCUGCCAUCAGAGCUCGAGAACAUCUUCGGAUGCAGAGGAGGAAGGCUUAGGUGGCGCGAUAGCACCAACGUCCUCAACCACCAAUGCAUCCCACCACAUGAUGAUGCCUGAAGAGCCUUGGUUUUUUG | -6.32 |
| GCCCAAUCUGACCUCAGAGCUCGAGAACAUCUUCGGAUGCAGAGGAGUCAGGCUUCGGUGGCGCGAUAGCGUCAACGUCUUCAACCUCCAAUGCAUCCCACCACAUGAUGAUGCCUGAAUAGCCUUGGUUUUUUG | -3.83 |
| GCCCAAUCUGUCCUCAGAGCUCGAGAACAUCUUCGGAUGCAGAGGAGGCAGGCUUCGGUGGCGCGAUAGGGCCAACGUCCUCAACCUCCAAUGCAUCCCACCACAUGAUGAUGCCUGAAAAGCCUUGGUUUUUUG | -3.19 |
